Assay results published in US20230322924A1 (Janssen / Centocor, published 2023).

B1: C33B88 (antibody, IgG1, V domains shown)
VH: QVQLVQSGSELKKPGASVKVSCKASGYTLTRSAMNWVRQAPGQGLEWMGWINTNTGNPTYAQGFTGRFVFSLDTSVNTAYLLISSLKTEDTAVYYCASDILPGYHEDYWGQGTLVTVSS
VL: QSALTQPASVSGSPGQSITISCTGINSDVGSYDLVSWYQQHPGKAPKLLIYDGSERPSGVFGRFSGSKSDNTTSLTISGLQAEDEAAYYCCSYEVTTTYVVFGGGTKLTVL
notes: huIgG1 F405L; also called C33F93; C33H88/C33L61
B2: C33B54 (antibody, IgG1, V domains shown)
VH: QVQLQQSGPGLVKPSQTLSLTCAISGDSVSSNSAAWNWIRQSPSRGLEWLGRTYYRSKWYNDYAVSVRSRITINPDTSKNQFSLQLNSVTPEDTAVYHCARETMFRGLMDYWGQGTLVTVSS
VL: SYVLTQPPSVSVAPGQTARITCGGSNIGSKSVHWYQQKPGQAPVMVVYDDSDRPSGIPERFSGSNSGNTATLTISRVEAGDEADYYCQVWDSSSDVVFGGGTKLTVL
notes: huIgG1 F405L; also called C33F59; C33H44/C33L10
B3: C33B89 (antibody, IgG1, V domains shown)
VH: QVQLQQSGPGLVKPSQTLSLTCAISGDSVSSNSAAWNWIRQSPSRGLEWLGRTYYRSKWYNDYALSVQSRITINPDTSKNQFSLQLNSVTPEDTAVYYCAREVAVAASFDYWGQGTLVTVSS
VL: SYVLTQPPSVSVAPGQTARITCGGNNIGSKSVHWSQQKPGQAPVLVVYDDSDRPSGIPERFSGSNSGNTATLTISRVEAGDEADYYCQVWDSNSDHVVFGGGTKLTVL
notes: huIgG1 F405L; also called C33F94; C33H90/C33L51
B4: C33B107 (antibody, IgG1, V domains shown)
VH: EVQLLESGGGLVQPGGSLGLSCAASGFTFSGYAMSWVRQAPGKGLNWVSAIDYSGNDTYYADSVKGRFTISRDNSKNTLYLQMNSLRAEDTAVYYCAKESQLLHGLFEHWGQGILVTVSS
VL: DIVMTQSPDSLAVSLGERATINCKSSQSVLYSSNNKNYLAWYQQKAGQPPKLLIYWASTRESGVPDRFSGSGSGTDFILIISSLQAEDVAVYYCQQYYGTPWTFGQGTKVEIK
notes: huIgG1 F405L; also called C33F112; C33H68/C33L17
B5: C33B909 (antibody, V domains shown)
VH: EVQLVESGGGLVQPGRSLRLSCVASGFTFDDYAIHWVRQAPGKGLEWVSGLSWNGGNIGYADSVKGRFTISRDNAKNSLYLQMNSLKTEDTAFYYCTKDTPYGDYFDYWGQGTLVTVSS
VL: DIQMTQSPSSVWASVGDRVTITCRASQGISSWLAWYQQQPGKAPNLLIYRSSSLQSGVPSRFSGSGSGTDFTLTISSLQPEDFATYYCQQDNSFPYTFGQGTKLEIK
notes: OMNIMouse-derived anti-CD33 mAb; same V regions as C33B901; The OMNIMouse mAbs were cloned into both IgG1 and IgG4 PAA; also called C33H249/C33L115
B6: C33B910 (antibody, V domains shown)
VH: EVQLVESGGGLVQPGRSLRLSCAGSGFTFDDYAIHWVRQAPGKGLEWVSGLSWNGGNIGYADSVKGRFTISRDNAKNSLYLQLNSLKTEDTAFYYCAKDSPYGDYFDYWGQGTLVTVSS
VL: DIQMTQSPSSEWASVGDRVTITCRASQGISSWLAWYQQKPGKAPKLLIYGASSWQSGVPSRFSGSGSGTDFTLTISSLQPEDFATYYCQQDNSFPYTFGQGTKLEIK
notes: OMNIMouse-derived anti-CD33 mAb; same V regions as C33B902; also called C33H250/C33L116

Experiments:
[1] = biological target: T1, Cyno CD33 ECD-HSA (cynomolgus monkey); assay: SPRi off-rate screen (IBIS MX96), mAb captured by anti-human Fc; column head prints Cyno CD33 binding KD
T1 construct: Cyno CD33 extracellular domain fused to monomeric human serum albumin and a six-histidine tag; also called C33W1
Description: (§1) To begin assessing the biophysical binding properties of the purified mAbs an off-rate screen was performed. 76 OMNIRat anti-CD33 mAbs were tested for binding to recombinant human CD33 ECD-HSA (C33W2) and cyno CD33 ECD-HSA (C33W1) proteins (Janssen production) and the off-rate was measured by IBIS MX96 SPRi array platform (Carterra; Newton, PA). […] The sensor chip was transferred to the Continuous Flow Microspotter (CFM) unit to capture each anti-CD33 mAb at 10 μg/ml for 10 minutes. Binding was measured on IBIS SPRi by single cycle kinetics without regeneration. […] The raw binding data (.trix file format) were referenced and aligned using SprintX software (Wasatch, Ver 1.9.3.2), then exported (.ibmx file format) to Scrubber software (Ver. 2.0) for 1:1 binding kinetic analyses (Wasatch, version 2.0.0.33) to extract the koff results.

[2] = biological target: T2, Cyno CD33 full length, expressed on HEK293F cells (cynomolgus monkey); assay: flow cytometry, HEK293F cells expressing cyno CD33
T2 construct: HEK293F cells transduced with lentivirus containing full length cyno CD33 (Genbank XP_005590138.1); also called cyCD33
Description: (§2) OMNIRat antibodies identified via immunization, v-region cloned and subsequently expressed and purified were characterized further for binding to CD33 expressing cells and binding to recombinant antigens. The purified antibodies were assessed for binding to stably transfected HEK293F cells expressing human CD33 or cyno CD33 (generation described above) along with the parental HEK293F as negative control. Cells were harvested from tissue culture flasks using non-enzymatic dissociation buffer (Thermo Scientific). The flasks were rinsed twice with PBS and dissociation buffer was added to the flask, and the flask was incubated for 10 minutes at 37° C. until the cells became non-adherent. The cells were centrifuged at 300 g for 5 minutes and resuspended at 1.0×10⁶ cells/ml in staining buffer (Becton Dickinson; Franklin Lakes, NJ). 50,000 cells/well of each cell type was plated in 50 μl of staining buffer in round bottom plates (Becton Dickinson). […] 100 μl staining buffer was added to all wells of each plate, the plates were spun at 300 g for 5 min, the buffer was removed, 200 μl staining buffer was added to all wells of each plate, the plates were spun at 300 g for 5 min, and the buffer was removed. 50 μl of 2 μg/ml of Goat-anti-human Fc AF647 secondary antibody (Jackson Immunoresearch; West Grove, PA) was added to all wells of the plates, and the plates were incubated for 30 min at 4° C. 100 μl staining buffer was added to all wells of the plates, the plates were spun at 300 g for 5 min, and the buffer was removed. 200 μl running buffer (running buffer is Staining buffer, 1 mM EDTA, 0.1% Pluronic Acid) was added to all wells of the plates, the plates were spun at 300 g for 5 min, and the buffer was removed. 30 μl running buffer containing Sytox Green live/dead dye (ThermoFisher) was added to all wells with cells and the plates were read on an iQue IntelliCyt flow cytometer. Cells were gated on forward vs. side scatter to eliminate debris, then on singlets and then on live cells which excluded the Sytox stain. Antibody binding was assessed by the mean fluorescence intensity in the AF647 channel.

[3] = biological target: Human CD33 ECD-HSA (human); assay: SPRi off-rate screen (IBIS MX96), mAb captured by anti-human Fc; column head prints KD
Description: as §1

[4] = biological target: T3, Human CD33 full length, expressed on HEK293F cells (human, UniProt P20138 18-364); assay: flow cytometry, HEK293F cells expressing human CD33
T3 construct: HEK293F cells transduced with lentivirus containing full length human CD33; also called huCD33
Description: as §2

[5] = biological target: T1, Cyno CD33 ECD-HSA; assay: ProteOn SPR, mAb captured by anti-human Fc, 1:1 Langmuir fit
Description: The panel of mAbs was then further characterized for full affinity analysis as well as epitope binning. The binding of anti-CD33 mAbs to recombinant human CD33 ECD-HSA (C33W2) and cyno CD33 ECD-HSA (C33W1) was measured by ProteOn SPR (Bio-Rad). […] Different mAbs were captured on the anti-human Fc IgG surface at 0.25 or 0.5 μg/ml (160-300 RU) in vertical ligand orientation, with the 6th ligand channel as no ligand surface control. Human and cyno CD33-HSA proteins at 0.3 μM concentration in 3-fold dilution series of 5 concentrations flew in as analyte to bind to captured mAbs in the horizontal orientation. A buffer sample was also injected in the 6th channel to monitor the dissociation of captured mAb and baseline stability. […] The raw biding data were processed by double referencing after subtracting the response data from: 1) the inter-spot to correct for the non-specific interactions between the Ag and the empty chip surface; 2) the buffer channel to correct for baseline drifting due to the dissociation of captured mAb surface over time. The processed data at all antigen concentrations for each mAb were globally fit to a 1:1 simple Langmuir binding model to extract estimates of the kinetic (kₒₙ, koff) and affinity (Kd) constants.

[6] = biological target: T4, Human CD33 full length (human, UniProt P20138 18-364); assay: flow cytometry on HEK293F cells expressing human CD33
T4 construct: also called huCD33
Description: as §2, with “The” for “OMNIRat antibodies identified via immunization, v-region cloned and subsequently expressed and purified were characterized further for binding to CD33 expressing cells and binding to recombinant antigens. The”
(§3) The OmniMouse panel (8 mAbs total) was generated separately and characterized further for binding to cells.

[7] = biological target: T5, Cyno CD33 full length (cynomolgus monkey); assay: flow cytometry on HEK293F cells expressing cyno CD33
T5 construct: also called cyCD33
Description: as §2, with “The” for “OMNIRat antibodies identified via immunization, v-region cloned and subsequently expressed and purified were characterized further for binding to CD33 expressing cells and binding to recombinant antigens. The”
as §3

T4 sequence (P20138 18-364 limits assumed): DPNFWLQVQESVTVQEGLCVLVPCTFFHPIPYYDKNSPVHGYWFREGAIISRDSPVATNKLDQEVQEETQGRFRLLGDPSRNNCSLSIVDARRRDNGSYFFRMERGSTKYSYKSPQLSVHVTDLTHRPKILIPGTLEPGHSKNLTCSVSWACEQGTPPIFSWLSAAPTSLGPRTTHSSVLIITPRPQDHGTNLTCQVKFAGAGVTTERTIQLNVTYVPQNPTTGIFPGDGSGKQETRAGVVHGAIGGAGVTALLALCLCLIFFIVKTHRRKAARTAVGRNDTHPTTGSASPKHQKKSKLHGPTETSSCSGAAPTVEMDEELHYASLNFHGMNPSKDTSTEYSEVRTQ
T3 sequence (P20138 18-364 limits assumed): as above
Chain of Human CD33 ECD-HSA (human) (chain, as listed by the source): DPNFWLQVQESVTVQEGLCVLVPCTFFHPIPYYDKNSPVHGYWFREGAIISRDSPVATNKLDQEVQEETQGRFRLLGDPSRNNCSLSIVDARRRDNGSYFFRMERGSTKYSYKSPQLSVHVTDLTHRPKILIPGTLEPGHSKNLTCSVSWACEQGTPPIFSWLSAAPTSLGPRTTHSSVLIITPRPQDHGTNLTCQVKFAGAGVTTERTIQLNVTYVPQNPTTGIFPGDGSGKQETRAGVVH

Binder | koff [1] | MFI at 0 nM mAb (background) [2] | MFI at 0.6 nM mAb [2] | MFI at 6 nM mAb [2] | MFI at 60 nM mAb [2] | koff [3] | MFI at 0 nM mAb (background) [4] | MFI at 0.6 nM mAb [4] | MFI at 6 nM mAb [4] | MFI at 60 nM mAb [4] | Kd [5] | koff [5] | kon [5] | MFI at 0 nM (background) [6] | MFI at 0.6 nM [6] | MFI at 6 nM [6] | MFI at 60 nM [6] | MFI at 0 nM (background) [7] | MFI at 0.6 nM [7] | MFI at 6 nM [7] | further results
B1 | 0.000389 s⁻¹ | 90.1 MFI | 43900 MFI | 43900 MFI | 50400 MFI | 0.000825 s⁻¹ | 94.8 MFI | 274000 MFI | 481000 MFI | 393000 MFI | – | – | – | – | – | – | – | – | – | – | –
B2 | 0.000135 s⁻¹ | 28800 MFI | 38100 MFI | 43000 MFI | 50500 MFI | 0.0248 s⁻¹ | 61.3 MFI | 3770 MFI | 27500 MFI | 148000 MFI | 0.484 nM | 0.000637 s⁻¹ | 1.32e+06 M⁻¹ s⁻¹ | – | – | – | – | – | – | – | –
B3 | 4.65e-05 s⁻¹ | 113 MFI | 23300 MFI | 34200 MFI | 47300 MFI | 0.00811 s⁻¹ | – | – | – | – | 0.76 nM | 0.000201 s⁻¹ | 265000 M⁻¹ s⁻¹ | – | – | – | – | – | – | – | –
B4 | 0.000135 s⁻¹ | 55.1 MFI | 36800 MFI | 47800 MFI | 50300 MFI | 0.00444 s⁻¹ | 86.5 MFI | 161000 MFI | 340000 MFI | 375000 MFI | 0.212 nM | 7.01e-05 s⁻¹ | 331000 M⁻¹ s⁻¹ | – | – | – | – | – | – | – | –
B5 | – | – | – | – | – | – | – | – | – | – | – | – | – | 191 MFI | 154 MFI | 170 MFI | 176 MFI | 124 MFI | 116 MFI | 135 MFI | MFI at 60 nM [7]: 180 MFI
B6 | – | – | – | – | – | – | – | – | – | – | – | – | – | 155 MFI | 151 MFI | 183 MFI | 214 MFI | 176 MFI | 117 MFI | 135 MFI | MFI at 60 nM [7]: 202 MFI
